Patent US9802997B2, “Peptides and combination of peptides for use in immunotherapy against various tumors” (immatics biotechnologies GmbH, priority 2015, dated 2017)

biological target: HLA-A*02:01 (Homo sapiens, UniProt P04439, D140Y/D185E/D98H/E176V/E277Q/G131W/G231S/I119V/I121R/I166T/I218V/L300P/L318F/N151K/N90K/P208A/P217A/Q86G/Q94H/R138H/R169H/T345S); assay: MHC binding assay (UV-ligand exchange, beta2m ELISA); conditions: binding to HLA-A*02:01, β2m ELISA
Method in brief: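 Exchange yield, UV-ligand exchange: 100-fold diluted samples on streptavidin plates, 1 h at 37 °C; HRP anti-β2m 1 h at 37 °C; TMB read at 450 nm.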

Substance	Peptide exchange (MHC class I binding score, peptide exchange yield)
24 (KVWSDVTPL; listed as Homo sapiens) [compound 24]	+++ (≧50 = +++)
159 (QLGPVPVTI; listed as Homo sapiens) [compound 159]	+++ (≧50 = +++)
3 (RVIDDSLVVGV; listed as Homo sapiens) [compound 3]	+++ (≧50 = +++)
22 (LMYPYIYHV; listed as Homo sapiens) [compound 22]	+++ (≧50 = +++)
37 (QIVELIEKI; listed as Homo sapiens) [compound 37]	++ (≧20% = ++)
220 (ALSELERVL; listed as Homo sapiens) [compound 220]	+++ (≧50 = +++)
187 (SILKEDPFL; listed as Homo sapiens) [compound 187]	++ (≧20% = ++)
109 (ILGSFELQL; listed as Homo sapiens) [compound 109]	+++ (≧50 = +++)
64 (SLYAGSNNQV; listed as Homo sapiens) [compound 64]	++ (≧20% = ++)
93 (RLYGYFHDA; listed as Homo sapiens) [compound 93]	++ (≧20% = ++)
31 (GLLETTGLLAT; listed as Homo sapiens) [compound 31]	+++ (≧50 = +++)
42 (KQMSISTGL; listed as Homo sapiens) [compound 42]	++ (≧20% = ++)
72 (VLSTRVTNV; listed as Homo sapiens) [compound 72]	++ (≧20% = ++)
179 (TLGEIIKGV; listed as Homo sapiens) [compound 179]	+++ (≧50 = +++)
129 (KMASKVTQV; listed as Homo sapiens) [compound 129]	++ (≧20% = ++)
154 (AIIKEIQTV; listed as Homo sapiens) [compound 154]	++ (≧20% = ++)
10 (QLIEKNWLL; listed as Homo sapiens) [compound 10]	+++ (≧50 = +++)
84 (FLLEREQLL; listed as Homo sapiens) [compound 84]	++++ (≧75% = ++++)
126 (QLREAFEQL; listed as Homo sapiens) [compound 126]	+++ (≧50 = +++)
36 (TVLQELINV; listed as Homo sapiens) [compound 36]	+++ (≧50 = +++)
92 (RLFEEVLGV; listed as Homo sapiens) [compound 92]	++++ (≧75% = ++++)

Substance	Peptide exchange (MHC class I binding score, peptide exchange yield)
228 (SLLELDGINLRL; listed as Homo sapiens) [compound 228]	+++ (≧50 = +++)
231 (LLDDIFIRL; listed as Homo sapiens) [compound 231]	+++ (≧50 = +++)
155 (TLDSYLKAV; listed as Homo sapiens) [compound 155]	++ (≧20% = ++)
28 (IKVTDPQLLEL; listed as Homo sapiens) [compound 28]	++ (≧20% = ++)
6 (FLNAIETAL; listed as Homo sapiens) [compound 6]	++++ (≧75% = ++++)
55 (HLFDKIIKI; listed as Homo sapiens) [compound 55]	+++ (≧50 = +++)
269 (GLLDCPIFL; listed as Homo sapiens) [compound 269]	++++ (≧75% = ++++)
284 (KLMDPGSLPPL; listed as Homo sapiens) [compound 284]	++ (≧20% = ++)
270 (TLLTFFHEL; listed as Homo sapiens) [compound 270]	+++ (≧50 = +++)
282 (SLYALHVKA; listed as Homo sapiens) [compound 282]	++ (≧20% = ++)
163 (GLEERLYTA; listed as Homo sapiens) [compound 163]	++ (≧20% = ++)
7 (ALLQALMEL; listed as Homo sapiens) [compound 7]	+++ (≧50 = +++)
238 (HLQEKLQSL; listed as Homo sapiens) [compound 238]	++ (≧20% = ++)
57 (TLYPGRFDYV; listed as Homo sapiens) [compound 57]	++ (≧20% = ++)
280 (HLWGHALFL; listed as Homo sapiens) [compound 280]	+++ (≧50 = +++)
49 (KLIGNIHGNEV; listed as Homo sapiens) [compound 49]	++ (≧20% = ++)
144 (FLISQTPLL; listed as Homo sapiens) [compound 144]	+++ (≧50 = +++)
234 (VLLNEILEQV; listed as Homo sapiens) [compound 234]	++++ (≧75% = ++++)
41 (IVTEIISEI; listed as Homo sapiens) [compound 41]	+++ (≧50 = +++)
133 (FLDGRPLTL; listed as Homo sapiens) [compound 133]	++ (≧20% = ++)
150 (VLLDMVHSL; listed as Homo sapiens) [compound 150]	+++ (≧50 = +++)

Substance	Peptide exchange (MHC class I binding score, peptide exchange yield)
146 (VVAAHLAGA; listed as Homo sapiens) [compound 146]	++ (≧20% = ++)
153 (KLVELEHTL; listed as Homo sapiens) [compound 153]	+++ (≧50 = +++)
106 (VLLGSVVIFA; listed as Homo sapiens) [compound 106]	++ (≧20% = ++)
71 (HMSGKLTNV; listed as Homo sapiens) [compound 71]	++ (≧20% = ++)
100 (ALQSFEFRV; listed as Homo sapiens) [compound 100]	+++ (≧50 = +++)
193 (ALFHMNILL; listed as Homo sapiens) [compound 193]	+++ (≧50 = +++)
87 (KLLSLLEEA; listed as Homo sapiens) [compound 87]	+++ (≧50 = +++)
275 (AVPPPPSSV; listed as Homo sapiens) [compound 275]	++ (≧20% = ++)
148 (YLILSSHQL; listed as Homo sapiens) [compound 148]	+++ (≧50 = +++)
281 (LLLESDPKVYSL; listed as Homo sapiens) [compound 281]	++ (≧20% = ++)
5 (GLVDIMVHL; listed as Homo sapiens) [compound 5]	+++ (≧50 = +++)
183 (ALSYILPYL; listed as Homo sapiens) [compound 183]	+++ (≧50 = +++)
65 (SLSEKSPEV; listed as Homo sapiens) [compound 65]	++ (≧20% = ++)
184 (ALDSTIAHL; listed as Homo sapiens) [compound 184]	++ (≧20% = ++)
160 (TLQEWLTEV; listed as Homo sapiens) [compound 160]	+++ (≧50 = +++)
208 (HLNNDRNPL; listed as Homo sapiens) [compound 208]	++ (≧20% = ++)
169 (ALADLSVAV; listed as Homo sapiens) [compound 169]	+++ (≧50 = +++)
215 (QIADIVTSV; listed as Homo sapiens) [compound 215]	++ (≧20% = ++)
212 (MTLSEIHAV; listed as Homo sapiens) [compound 212]	++ (≧20% = ++)
258 (QLVQRVASV; listed as Homo sapiens) [compound 258]	++ (≧20% = ++)
